The text below walks through data of US20200199207A1 (MABYLON, published 2020).

Residue numbers refer to the chain shown, from its start.

T1: Peptide 3 (peanut)
T1 construct: also called linear Ara h 2 peptide 3
T1 peptide: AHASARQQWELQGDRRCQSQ

T2: Peptide 11 (peanut)
T2 construct: also called linear Ara h 2 peptide 11
T2 peptide: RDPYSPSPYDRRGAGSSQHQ

T3: Peptide 13 (peanut)
T3 construct: also called linear Ara h 2 peptide 13
T3 peptide: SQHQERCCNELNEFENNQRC

T4: Peptide 5 (peanut)
T4 construct: also called linear Ara h 2 peptide 5
T4 peptide: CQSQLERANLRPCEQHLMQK

T5: Peptide 4 (peanut)
T5 construct: also called linear Ara h 2 peptide 4
T5 peptide: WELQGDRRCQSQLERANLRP

T6: Peptide 10 (peanut)
T6 construct: also called linear Ara h 2 peptide 10
T6 peptide: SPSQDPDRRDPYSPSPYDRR

T7: Peptide 9 (peanut)
T7 construct: also called linear Ara h 2 peptide 9
T7 peptide: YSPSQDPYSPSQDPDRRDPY

T8: Peptide 2 (peanut)
T8 construct: also called linear Ara h 2 peptide 2
T8 peptide: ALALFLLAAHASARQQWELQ

T9: Peptide 16 (peanut)
T9 construct: also called linear Ara h 2 peptide 16
T9 peptide: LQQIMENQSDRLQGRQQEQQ

T10: Peptide 15 (peanut)
T10 construct: also called linear Ara h 2 peptide 15
T10 peptide: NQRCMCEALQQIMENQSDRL

T11: Peptide 6 (peanut)
T11 construct: also called linear Ara h 2 peptide 6
T11 peptide: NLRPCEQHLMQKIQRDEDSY

T12: Peptide 20 (peanut)
T12 construct: also called linear Ara h 2 peptide 20
T12 peptide: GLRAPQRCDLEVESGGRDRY

T13: Peptide 12 (peanut)
T13 construct: also called linear Ara h 2 peptide 12
T13 peptide: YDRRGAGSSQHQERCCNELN

T14: Peptide 7 (peanut)
T14 construct: also called linear Ara h 2 peptide 7
T14 peptide: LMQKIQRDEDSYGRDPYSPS

T15: Peptide 8 (peanut)
T15 construct: also called linear Ara h 2 peptide 8
T15 peptide: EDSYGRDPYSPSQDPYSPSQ

T16: Peptide 14 (peanut)
T16 construct: also called linear Ara h 2 peptide 14
T16 peptide: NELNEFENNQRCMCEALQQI

T17: Peptide 17 (peanut)
T17 construct: also called linear Ara h 2 peptide 17
T17 peptide: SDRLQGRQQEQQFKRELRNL

T18: Peptide 19 (peanut)
T18 construct: also called linear Ara h 2 peptide 19
T18 peptide: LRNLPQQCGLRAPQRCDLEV

T19: Peptide 18 (peanut)
T19 construct: also called linear Ara h 2 peptide 18
T19 peptide: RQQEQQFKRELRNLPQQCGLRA

T20: Peptide 1 (peanut)
T20 construct: 20-mer of Ara h 2, overlap of 12 with its neighbours; also called linear Ara h 2 peptide 1
T20 peptide: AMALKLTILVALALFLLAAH

B1: h4B2 (antibody, V domains shown)
VH: QVQLQEAGPRLVKPSQTLSVTCTVSGASITIGGYYWSWIRQHPGKGLEWMGYIYSNGRTYYNPSLKSRIAMSIDTSKNQFSLKLTSVTAADTAIYFCAREAWETPLWGQGTLITVSS
VL: DIQMTQSPSSLSASVGDRVTITCQANQDIVNSLNWFQHKPGTAPKVLIYDASKLETGVPSRFSGSGSGTHFTFTISGLQPEDFATYFCQQYENLPHTFGQGTKLEIR
notes: Recombinant human IgG; also called hMAb 4B2
B2: h12G10 (antibody, human IgG1, V domains shown)
VH: EVQLLESGGRLLRPGGSLSLSCVASGFYFGDFGMSWVRQVPGKGLEWVSGIDWSGRSTGYVDSMKGRLTISRDNDKSSLYLQMNDLRGEDTAVYYCARVGRLCSGDSCDSMGAFDLWGQGTMVTVSS
VL: DIQLTQSPSTLSASIGDSVTITCRASQNIDNWLAWYQQKPGKAPRLLIYKASSLGSGVSSKFRGSGFGTEFTLTITSLQPDDFATYYCQKSNGYSRTFGQGTKVDIK
notes: Recombinant human IgG; also called hMAb 12G10
B3: h37D5 (antibody, V domains shown)
VH: EEQLVESGGRLLRPGESLSLSCAAVGFNFGDFGMAWVRQPPGKGLEWVAGINWSGHSTGFVDSMKGRLTISRDSAKSSLFLQMNSLRGEDTAVYYCARVGRLCSGDICDSMGAFDLWGQGTMVTVSS
VL: B2 VL with L4M, S18R, N28T, K39R, R45K, K50Q, G55Q, K61R, F67S, D105E
notes: Recombinant human IgG; also called hMAb 37D5
B4: h32B10 (antibody, V domains shown)
VH: QVQLVQSGAEVKKPGASVKVSCRASGYIFRNFDINWVRQATGQGLEWMGWMSPKSGDTGYAQKFQGRVTMTRDTSINTAYMELSSLTSEDSAVYYCARGVDGTNWGQGTRVTVSS
VL: DIVMTQSPDSLGVSLGERATISCKSSQSILDNSNNKNFIAWFQQKPGQPPKLLIYWASARESGVPDRFSGSGSGTEFTLTINSLQAEDVAVYYCYQYYSTPHTFGQGTKLDLR
notes: Recombinant human IgG; also called hMAb 32B10

The target of the first assay is T1, Peptide 3. The assay is described as follows: competition ELISA, peptide in solution vs coated Ara h 2. Here is the method: (§1) A competition ELISA was used to evaluate binding of exemplary anti-peanut antibodies of the present invention to linear Ara h 2 epitopes. Serial dilutions of linear Ara h 2 epitopes (100 μM down to 0.19 nM; peptides with a length of 20 amino acids and an overlap of 12 amino acids between the peptides) were pre-incubated with exemplary anti-peanut antibodies ([…]) for 1 hour at room temperature. The pre-incubated antibody-epitope mixtures were subsequently incubated on plates coated with full length Ara h 2 (coating overnight at 4° C. with 0.05 μg/ml Ara h 2 in PBS, followed by wash out and blocking with 2% BSA in PBS). The plates were subsequently washed and binding of MAbs to Ara h 2 was detected HRP-conjugated goat anti human Fc-gamma-specific antibody (Jackson ImmunoResearch, West Grove, Pa., USA) followed by measurement of the HRP activity using a tetramethylbenzidine substrate solution (TMB, Sigma-Aldrich Chemie GmbH, Buchs, Switzerland). As may be seen from Table 5, exemplary anti-peanut allergen antibody 32B10 binds to different linear Ara h 2 epitopes than 12G10 and 37D5.
In the case of B1, the binding result is “no binding (tested: 100 µM)”.

B2: the binding result is recorded as “no binding (tested: 100 µM)”.

B3: the binding result is reported as “no binding (tested: 100 µM)”.

Regarding B4, the binding result is reported as “no binding (tested: 100 µM)”.

In a further assay the target is T2, Peptide 11. Described as above. Here is the method: as §1
As for B1, the binding result is “no binding (tested: 100 µM)”.

With B2, the binding result was “binds”.

Take B3: the binding result was “binds”.

Take B4: the binding result is reported as “no binding (tested: 100 µM)”.

For a further assay, the target named is T3, Peptide 13. The assay is described as above. The procedure: as §1
For B1, the binding result is “no binding (tested: 100 µM)”.

For the molecule B2, the binding result is “no binding (tested: 100 µM)”.

B3: the binding result is reported as “no binding (tested: 100 µM)”.

Consider B4, for which the binding result was “no binding (tested: 100 µM)”.

A further assay has as its target T4, Peptide 5. The description is as above. Here is the method:
as §1
As to B1, the binding result is “no binding (tested: 100 µM)”.

Turning to B2, the binding result was “no binding (tested: 100 µM)”.

As for B3, the binding result was “no binding (tested: 100 µM)”.

As to B4, the binding result is “no binding (tested: 100 µM)”.

In a further assay the target is T5, Peptide 4. The description is as above. Here is the method: as §1
In the case of B1, the binding result is recorded as “no binding (tested: 100 µM)”.

Regarding B2, the binding result was “no binding (tested: 100 µM)”.

Take B3: the binding result is “no binding (tested: 100 µM)”.

Take B4: the binding result was “binds”.

The target of a further assay is T6, Peptide 10. The assay is described as above. Here is the method:
as §1
Consider B1, for which the binding result is recorded as “no binding (tested: 100 µM)”.

As for B2, the binding result is reported as “binds”.

With B3, the binding result is given as “binds”.

As to B4, the binding result is “no binding (tested: 100 µM)”.

For a further assay, the target named is T7, Peptide 9. Described as above. The procedure:
as §1
Regarding B1, the binding result was “no binding (tested: 100 µM)”.

Take B2: the binding result is recorded as “binds”.

B3: the binding result is given as “binds”.

On to B4, for which the binding result is “no binding (tested: 100 µM)”.

The next assay has as its target T8, Peptide 2. The description is as above. The procedure: as §1
Take B1: the binding result was “no binding (tested: 100 µM)”.

B2: the binding result was “no binding (tested: 100 µM)”.

For B3, the binding result is reported as “no binding (tested: 100 µM)”.

In the case of B4, the binding result is “no binding (tested: 100 µM)”.

Another assay concerns the target T9, Peptide 16. The description is as above. Here is the method:
as §1
As for B1, the binding result is reported as “no binding (tested: 100 µM)”.

Consider B2, for which the binding result was “no binding (tested: 100 µM)”.

For B3, the binding result was “no binding (tested: 100 µM)”.

Regarding B4, the binding result is listed as “no binding (tested: 100 µM)”.

Another assay concerns the target T10, Peptide 15. Described as above. The procedure:
as §1
For the molecule B1, the binding result is reported as “no binding (tested: 100 µM)”.

In the case of B2, the binding result is given as “no binding (tested: 100 µM)”.

Regarding B3, the binding result is “no binding (tested: 100 µM)”.

Consider B4, for which the binding result is “no binding (tested: 100 µM)”.

In a further assay the target is T11, Peptide 6. The description is as above. Here is the method:
as §1
In the case of B1, the binding result is “no binding (tested: 100 µM)”.

Consider B2, for which the binding result is given as “no binding (tested: 100 µM)”.

On to B3, for which the binding result is listed as “no binding (tested: 100 µM)”.

Take B4: the binding result is “no binding (tested: 100 µM)”.

For the next assay, the target named is T12, Peptide 20. Described as above. Here is the method: as §1
For B1, the binding result is “no binding (tested: 100 µM)”.

Turning to B2, the binding result is recorded as “no binding (tested: 100 µM)”.

For the molecule B3, the binding result is “no binding (tested: 100 µM)”.

In the case of B4, the binding result was “no binding (tested: 100 µM)”.

In another assay the target is T13, Peptide 12. The assay is described as above. The procedure:
as §1
On to B1, for which the binding result is “no binding (tested: 100 µM)”.

B2: the binding result is reported as “no binding (tested: 100 µM)”.

Consider B3, for which the binding result is on record as “no binding (tested: 100 µM)”.

With B4, the binding result is “no binding (tested: 100 µM)”.

The next assay addresses T14, Peptide 7. The description is as above. The procedure: as §1
B1: the binding result is “no binding (tested: 100 µM)”.

On to B2, for which the binding result is reported as “no binding (tested: 100 µM)”.

Regarding B3, the binding result was “no binding (tested: 100 µM)”.

As for B4, the binding result is “no binding (tested: 100 µM)”.

The next assay concerns the target T15, Peptide 8. The description is as above. The procedure:
as §1
With B1, the binding result is on record as “no binding (tested: 100 µM)”.

Turning to B2, the binding result is “binds”.

Consider B3, for which the binding result is given as “binds”.

In the case of B4, the binding result is “no binding (tested: 100 µM)”.

Another assay concerns the target T16, Peptide 14. The description is as above. The procedure: as §1
Turning to B1, the binding result is given as “no binding (tested: 100 µM)”.

With B2, the binding result is listed as “no binding (tested: 100 µM)”.

For the molecule B3, the binding result was “no binding (tested: 100 µM)”.

Turning to B4, the binding result was “no binding (tested: 100 µM)”.

The target in a further assay is T17, Peptide 17. The assay is described as above. Here is the method:
as §1
Consider B1, for which the binding result is listed as “no binding (tested: 100 µM)”.

Turning to B2, the binding result was “no binding (tested: 100 µM)”.

As for B3, the binding result is “no binding (tested: 100 µM)”.

Turning to B4, the binding result was “no binding (tested: 100 µM)”.

The target in another assay is T18, Peptide 19. The description is as above. The procedure:
as §1
For the molecule B1, the binding result is on record as “no binding (tested: 100 µM)”.

In the case of B2, the binding result is “no binding (tested: 100 µM)”.

As for B3, the binding result was “no binding (tested: 100 µM)”.

In the case of B4, the binding result is “no binding (tested: 100 µM)”.

A further assay addresses T19, Peptide 18. The description is as above. The procedure: as §1
For the molecule B1, the binding result is recorded as “no binding (tested: 100 µM)”.

As to B2, the binding result is “no binding (tested: 100 µM)”.

As for B3, the binding result is “no binding (tested: 100 µM)”.

As to B4, the binding result is “no binding (tested: 100 µM)”.

The target in a further assay is T20, Peptide 1. Described as above. Here is the method: as §1
Regarding B1, the binding result is “no binding (tested: 100 µM)”.

Consider B2, for which the binding result is reported as “no binding (tested: 100 µM)”.

For the molecule B3, the binding result is on record as “no binding (tested: 100 µM)”.

As for B4, the binding result is “no binding (tested: 100 µM)”.
